# From PMC2987766
# How the values were obtained:
# [1] = target: Recombinant perlecan domain I (PlnDI), undigested (UniProt Q05793); assay: far-Western, overlay or dot blot; solution phase, pH 7.0: PlnDI (5 ug), untreated or pre-digested with heparinase cocktail and/or chondroitinase ABC, pre-incubated with 20 ng VEGF165 for 1 hr at room temperature (25 mM HEPES), then blotted onto nitrocellulose; bound VEGF165 detected with anti-VEGF165 antibodies; background subtracted
# [2] = target: PlnDI pre-digested with a heparinase cocktail (heparinases I, II and III); assay: far-Western, overlay or dot blot; solid phase: PlnDI, undigested or pre-digested with heparinase cocktail +/- chondroitinase ABC, immobilised on nitrocellulose and incubated with VEGF165; bound VEGF165 detected with VEGF monoclonal antibodies, densitometry; heparin 0.25 ug/ml for competitive inhibition
# [3] = target: Recombinant perlecan domain I (PlnDI), undigested (UniProt Q05793); assay: as above
# [4] = target: Recombinant perlecan domain I (PlnDI), undigested (UniProt Q05793); assay: far-Western, overlay or dot blot; solution phase, pH 6.0: PlnDI (5 ug) pre-incubated with 20 ng VEGF165 for 1 hr at room temperature (25 mM HEPES), then blotted onto nitrocellulose; bound VEGF165 detected with anti-VEGF165 antibodies; background subtracted
substance,measurement,setting,value
Recombinant human vascular endothelial growth factor-165 (ligand),percent reduction of binding against pH 8.0,[1],50%
same,percent reduction of binding against undigested PlnDI,[2],75%
same,percent of binding prevented by heparin 0.25 ug/ml,[3],80%
same,percent reduction of binding against pH 8.0,[4],80%
